{"source": "patent US20220056123A1", "about": "“USE OF IL-1BETA BINDING ANTIBODIES” (NOVARTIS AG, priority 2018, published 2022)", "key": {"[1]": {"tested_on": "MDA-MB-231Luc2-TdTomato cells", "experiment": "Spontaneous human breast cancer metastasis to human bone implants", "assay_type": "in vivo, NOD SCID mice", "experimental": "FIG. 4. Pharmacological blockade of IL-1B inhibits spontaneous metastasis to human bone in vivo. Female NOD-SCID mice bearing two 0.5 cm^3 pieces of human femoral bone received intra-mammary injections of MDA-MB-231Luc2-TdTomato cells. […] All animals were culled 35 days following tumour cell injection. Effects on bone metastases (a) were assessed in vivo and immediately post-mortem by luciferase imaging and confirmed ex vivo on histological sections. Data are shown as numbers of photons per second emitted 2 minutes following sub-cutaneous injection of D-luciferin. Effects on numbers of tumour cells detected in the circulation are shown in (b). *=P<0.01. **=P<0.001. ***=P<0.0001.\nTo model human breast cancer metastasis to human bone implants two human bone discs were implanted subcutaneously into 10-week old female NOD SCID mice (n=10/group) under isofluorane anaesthetic. Mice received an injection of 0.003 mg vetergesic and Septrin was added to the drinking water for 1 week following bone implantation. Mice were left for 4 weeks before injecting 1×10^5 MDA-MB-231 Luc2-TdTomato, MCF7 Luc2 or T47D Luc2 cells in 20% Martigel/79% PBS/1% toluene blue into the two hind mammary fat pads. Primary tumor growth and development of metastases was monitored weekly using an IVIS […] system (Caliper Life Sciences) following sub-cutaneous injection of 30 mg/ml D-luciferin (Invitrogen). On termination of experiments mammary tumors, circulating tumor cells, serum and bone metastases were resected. RNA was processed for downstream analysis by real time PCR, and cell lysates were taken for protein analysis and whole tissue for histology as previously described (Nutter et al., 2014; Ottewell et al., 2014a). […] Tumor cells, serum, and bone were subsequently resected for downstream analysis. Bone metastases were investigated following injection of 5×10^5 MDA-MB-231 GFP (control), MDA-MB-231-IV, MDA-MB-231-IL-1B-positive or MDA-MB-231-IL-1R1-positive cells into the lateral tail vein of 6 to 8-week old female BALB/c nude mice (n=12/group). Tumor growth in bones and lungs was monitored weekly by GFP imaging in live animals. Mice were culled 28 days after tumor cell injection at which timepoint hind limbs, lungs and serum were resected and processed for microcomputed tomography imaging (pCT), histology and ELISA analysis of bone turnover markers and circulating cytokines as described (Holen et al., 2016).\nWhole blood was centrifuged at 10,000×g for 5 minutes and the serum removed for ELISA assays. The cell pellet was re-suspended in 5 ml of FSM lysis solution (Sigma-Aldrich, Pool, UK) to lyse red blood cells. Remaining cells were re-pelleted, washed 3× in PBS and re-suspended in a solution of PBS/10% FCS. Samples from 10 mice per group were pooled prior to isolation of TdTomato positive tumor cells using a MoFlow High performance cell sorter (Beckman Coulter, Cambridge UK) with the […] laser line from a Coherent I-90C tenable argon ion (Coherent, Santa Clara, Calif.). TdTomato fluorescence was detected by a 555LP dichroic long pass and a 580/30 nm band pass filter. Acquisition and analysis of cells was performed using Summit 4.3 software. After sorting, cells were immediately placed in RNA protect cell reagent (Ambion, Paisley, Renfrew, UK) and stored at −80° C. before RNA extraction. For counting numbers of circulating tumor cells, TdTomato fluorescence was detected using a 561 nm laser and an YL1-A filter (585/16 emission filter). Acquisition and analysis of cells was performed using Attune N×T software."}, "mouse IL-1β": {"molecular_target": "mouse IL-1β (Mus musculus, UniProt P10749)", "sequence (P10749 118-269)": "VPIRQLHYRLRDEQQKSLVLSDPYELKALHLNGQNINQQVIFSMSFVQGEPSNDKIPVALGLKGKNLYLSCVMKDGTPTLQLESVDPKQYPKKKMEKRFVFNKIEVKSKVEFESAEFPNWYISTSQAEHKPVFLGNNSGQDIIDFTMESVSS", "experiment": "Cross-reactivity with mouse IL-1β", "assay_type": "binding"}, "[2]": {"tested_on": "locally advanced or metastatic non-small cell lung cancer", "set-up": "species or system human", "settings": "in vivo", "text": "A Randomized, Double-Blind Phase III Study of Pembrolizumab+Platinum-based Chemotherapy with or without Canakinumab as First Line Therapy for Locally Advanced or Metastatic Non-squamous and Squamous Non-small Cell Lung Cancer Subjects The study population includes adult patients with first-line locally advanced stage IIIB (not eligible for definitive chemo-radiation therapy) or stage IV metastatic non-small cell lung cancer (NSCLC), without EGFR mutations or ALK translocation. Only patients who have not previously been treated with any systemic anti-cancer therapy are included, with the exception of neo-adjuvant or adjuvant therapy (if relapse has occurred more than 12 months from the end of that therapy). In addition, subjects should be without known B-RAF mutation or ROS-1 genetic aberrations.\nThe non-randomized safety run-in portion of the study will be done with canakinumab in combination with pembrolizumab and three platinum-based doublet chemotherapies: carboplatin+pemetrexed (patients with non-squamous tumors), cisplatin+pemetrexed (patients with non-squamous tumors), and carboplatin+paclitaxel (patients with either squamous or non-squamous tumor). Non-squamous tumor histology subjects who receive paclitaxel-carboplatin with pembrolizumab in the safety-run-in and achieve stable disease (SD) or better will receive pemetrexed maintenance after completing induction. […] The secondary objectives are to characterize safety and tolerability, pharmacokinetics, immunogenicity, and to assess the preliminary clinical anti-tumor activity. The analysis to determine the recommended phase III dose regimen (RP3R) will be conducted when at least 6 evaluable patients in each of the 3 treatment cohorts have been observed for dose limiting toxicity (DLT) for at least 42 days at the starting dose level to establish the RP3R.\nAt data cut-off, 6 patients (3 in A, 2 in B and 1 in C) of the 30 treated patients, discontinued the study treatment. The primary reason for treatment discontinuation was PD (3 patients in A and 1 patient each in B and C)"}}, "note": "Where two headings read alike, the source gives them in different places."}
{"substance": "canakinumab: high-affinity, fully human monoclonal antibody of the IgG1/k to interleukin-1β", "values": [{"measurement": "mice with metastasis detected in human bone implants", "setting": "[1]; IL-1Ra 1 mg/kg daily, canakinumab sc every 14 days, from 7 days after tumor cell injection, control 7 out of 10", "value": "1 out of 10"}, {"measurement": "size of bone metastases", "setting": "[1]; luciferase imaging, vs control group", "value": "smaller than those detected in the control group"}, {"measurement": "tumor cells counted in whole blood", "setting": "[1]; placebo 108 tumor cells/ml", "value": 3, "unit": "tumor cells/ml"}, {"measurement": "cross-reactivity with mouse IL-1β", "setting": "mouse IL-1β", "value": "does not cross-react to murine IL-1β"}, {"measurement": "cross-reactivity with mouse IL-1β", "setting": "mouse IL-1β; listed as Canakinumab", "value": "does not cross-react with mouse IL-1β"}, {"measurement": "AEs leading to discontinuation of one of the study drugs", "setting": "[2]", "value": 3, "unit": "patients"}, {"measurement": "AEs leading to dose interruption: decreased neutrophil count", "setting": "[2]", "value": 3, "unit": "patients"}, {"measurement": "AEs leading to dose interruption: decreased white blood cell count", "setting": "[2]", "value": 1, "unit": "patient"}, {"measurement": "AEs leading to dose interruption: neutropenia", "setting": "[2]", "value": 1, "unit": "patient"}, {"measurement": "AEs leading to dose reduction: myalgia", "setting": "[2]", "value": 1, "unit": "patients"}, {"measurement": "AEs leading to dose reduction: peripheral neuropathy", "setting": "[2]", "value": 2, "unit": "patients"}, {"measurement": "Grade 5 adverse events", "setting": "[2]", "value": "No Grade 5 adverse events were observed"}, {"measurement": "patients with dose limiting toxicity (DLT)", "setting": "[2]", "value": 1, "unit": "patient"}, {"measurement": "patients with grade 3 AEs", "setting": "[2]", "value": 13, "unit": "patients"}, {"measurement": "patients with grade 4 AE", "setting": "[2]", "value": 1, "unit": "patient"}]}
